The labels stand for the following.
B1: Fab VH5-51_IGHD5-18*01>3_IGHJ4*01 G100K/G104T (KT) & V3-4_IGLJ1*01 R56Y (Fab, V domains shown)
VH: EVQLVQSGAEVKKPGESLKISCKGSGYSFTSYWIGWVRQMPGKGLEWMGIIYPGDSDTRYSPSFQGQVTISADKSISTAYLQWSSLKASDTAMYYCARRKYSYTYDYFDYWGQGTLVTVSS
VL: QTVVTQEPSFSVSPGGTVTLTCGLSSGSVSTSYYPSWYQQTPGQAPRTLIYSTNTYSSGVPDRFSGSILGNKAALTITGAQADDESDYYCVLYMGSGISYVFGTGTKVTVL
notes: Fab; also called H:KT & L:R56Y
B2: Fab VH5-51_IGHD5-18*01>3_IGHJ4*01 G100K/G104T G24L & V3-4_IGLJ1*01 (Fab, V domains shown)
VH: B1 VH with G24L
VL: B1 VL with Y56R
notes: Fab; also called H:KT G24L & L:parent
B3: Fab VH5-51_IGHD5-18*01>3_IGHJ4*01 G100K/G104T (KT) & V3-4_IGLJ1*01 S52G (Fab, V domains shown)
VH: B1 VH
VL: B1 VL with S52G, Y56R
notes: Fab; also called H:KT & L:S52G
B4: Fab VH5-51_IGHD5-18*01>3_IGHJ4*01 G100K/G104T T58D & V3-4_IGLJ1*01 (Fab, V domains shown)
VH: B1 VH with T58D
VL: B1 VL with Y56R
notes: Fab; also called H:KT T58D & L:parent
B5: Fab VH5-51_IGHD5-18*01>3_IGHJ4*01 G100K/G104T S28R & V3-4_IGLJ1*01 (Fab, V domains shown)
VH: B1 VH with S28R
VL: B1 VL with Y56R
notes: Fab; also called H:KT S28R & L:parent; H:KT S28R & L:wt
B6: Fab VH5-51_IGHD5-18*01>3_IGHJ4*01 G100K/G104T G35V & V3-4_IGLJ1*01 (Fab, V domains shown)
VH: B1 VH with G35V
VL: B1 VL with Y56R
notes: Fab; also called H:KT G35V & L:parent
B7: Fab VH5-51_IGHD5-18*01>3_IGHJ4*01 G100K/G104T T58A & V3-4_IGLJ1*01 (Fab, V domains shown)
VH: B1 VH with T58A
VL: B1 VL with Y56R
notes: Fab; also called H:KT T58A & L:parent
B8: Fab VH5-51_IGHD5-18*01>3_IGHJ4*01 G100K/G104T (H:KT) & V3-4_IGLJ1*01 (Fab, V domains shown)
VH: B1 VH
VL: B1 VL with Y56R
notes: Tested as Fab made in E. coli: VH joined to CH1 (Plasmid A, His and Flag tags), VL joined to lambda CL (Plasmid E); also called H:KT & L:wt; KT double mutant
B9: Fab VH5-51_IGHD5-18*01>3_IGHJ4*01 G100K/G104T (H:KT) & V3-4_IGLJ1*01 G23A, N175K (Fab, V domains shown)
VH: B1 VH
VL: QTVVTQEPSFSVSPGGTVTLTCALSSGSVSTSYYPSWYQQTPGQAPRTLIYSTNTRSSGVPDRFSGSILGNKAALTITGAQADDESDYYCVLYMGSGISYVFGTGTKVTVLG
notes: also called G100K/G104T & G23A/N175K
B10: Fab VH5-51_IGHD5-18*01>3_IGHJ4*01 G100K/G104T (H:KT) & V3-4_IGLJ1*01 S25A, A116T (Fab, V domains shown)
VH: B1 VH
VL: B9 VL with A23G, S25A
notes: also called G100K/G104T & S25A/A116T; named S52A/A116T in the running text
B11: Fab VH5-51_IGHD5-18*01>3_IGHJ4*01 G100K/G104T (H:KT) & V3-4_IGLJ1*01 T78V (Fab, V domains shown)
VH: B1 VH
VL: B1 VL with Y56R, T78V
notes: Fab with CH1 and lambda CL from the expression plasmids; also called G100K/G104T & T78V
B12: Fab VH5-51_IGHD5-18*01>3_IGHJ4*01 G100K/G104T (H:KT) & V3-4_IGLJ1*01 T78S (Fab, V domains shown)
VH: B1 VH
VL: B1 VL with Y56R, T78S
notes: Fab with CH1 and lambda CL from the expression plasmids; also called G100K/G104T & T78S
B13: Fab VH5-51_IGHD5-18*01>3_IGHJ4*01 G100K/G104T (H:KT) & V3-4_IGLJ1*01 T78L (Fab, V domains shown)
VH: B1 VH
VL: B1 VL with Y56R, T78L
notes: Fab with CH1 and lambda CL from the expression plasmids; also called G100K/G104T & T78L
B14: Fab VH5-51_IGHD5-18*01>3_IGHJ4*01 G100K/G104T (H:KT) & V3-4_IGLJ1*01 T78K (Fab, V domains shown)
VH: B1 VH
VL: B1 VL with Y56R, T78K
notes: Fab with CH1 and lambda CL from the expression plasmids; also called G100K/G104T & T78K
B15: Fab VH5-51_IGHD5-18*01>3_IGHJ4*01 G100K/G104T (H:KT) & V3-4_IGLJ1*01 T78E (Fab, V domains shown)
VH: B1 VH
VL: B1 VL with Y56R, T78E
notes: Fab with CH1 and lambda CL from the expression plasmids; also called G100K/G104T & T78E
B16: Fab VH3-23_IGHD2-21*01>3_IGHJ6*01 H100E/S108P/Y113G Y110I & V2-13_IGLJ2*01 (Fab, V domains shown)
VH: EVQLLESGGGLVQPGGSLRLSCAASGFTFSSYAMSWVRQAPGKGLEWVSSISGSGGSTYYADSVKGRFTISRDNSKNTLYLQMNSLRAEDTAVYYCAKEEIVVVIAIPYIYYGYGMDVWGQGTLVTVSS
VL: SSELTQDPAVSVALGQTVRITCQGDSLRSYYASWYQQKPGQAPVLVIYGKNNRPSGIPDRFSGSSSGNTASLTITGAQAEDEADYYCNSRDSSGNHLVVFGGGTKLTVL
notes: Tested as Fab made in E. coli: VH joined to CH1 (His and Flag tags), VL joined to lambda CL; also called EPG Y110I
B17: Fab VH3-23_IGHD2-21*01>3_IGHJ6*01 H100E/S108P/Y113G Y110W & V2-13_IGLJ2*01 (Fab, V domains shown)
VH: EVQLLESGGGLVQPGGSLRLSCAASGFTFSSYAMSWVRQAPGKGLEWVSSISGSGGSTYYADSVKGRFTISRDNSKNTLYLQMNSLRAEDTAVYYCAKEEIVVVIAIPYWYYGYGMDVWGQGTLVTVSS
VL: B16 VL
notes: Tested as Fab made in E. coli: VH joined to CH1 (His and Flag tags), VL joined to lambda CL; also called EPG Y110W
B18: Fab VH3-23_IGHD2-21*01>3_IGHJ6*01 H100E/S108P/Y113G Y110T & V2-13_IGLJ2*01 (Fab, V domains shown)
VH: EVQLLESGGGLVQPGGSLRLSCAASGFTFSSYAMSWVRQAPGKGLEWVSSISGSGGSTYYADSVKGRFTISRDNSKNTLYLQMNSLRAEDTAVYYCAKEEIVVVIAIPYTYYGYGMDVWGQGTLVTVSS
VL: B16 VL
notes: Tested as Fab made in E. coli: VH joined to CH1 (His and Flag tags), VL joined to lambda CL; also called EPG Y110T

Residue numbers refer to the chain shown, from its start. Names and notes keep the numbering of the source.

The target in one test is T1, Recombinant Human DLL4 (delta-like protein 4) (human, UniProt Q9NR61 27-524).
T1 construct: also called rHuman DLL4; Delta-like 4
The test is described as follows: ELISA on coated DLL4, Fab at 25 nM (2-fold serial dilution).
As to B1, the ELISA signal came to 0.205.
With B2, the ELISA signal is 0.221.
On the same count and under the same terms, to B3 belongs 0.227; to B4, 0.218; to B5, 0.365.
B6: the ELISA signal stood at 0.232.
Still for that read-out and setting: to B7 belongs 0.22.

Another test has as its target T1, Recombinant Human DLL4 (delta-like …). In words: ELISA on coated DLL4, Fab at 100 nM (2-fold serial dilution).
Take B1: the ELISA signal was 0.231.
On the same count and under the same terms, to B2 belongs 0.298.
On the same count and under the same terms, to B3 belongs 0.209; to B4, 0.219.
Same read-out and setting: to B5 belongs 0.529; to B6, 0.271.
As for B7, the ELISA signal is 0.253.

For the next test the target is unchanged. In words: ELISA on coated DLL4, Fab at 6.25 nM (2-fold serial dilution). Background: In an ELISA, binding on a coated surface is turned into a signal by an enzyme label.
Regarding B1, the ELISA signal came to 0.182.
Still for that read-out and setting: to B2 belongs 0.278; to B3, 0.207.
With B4, the ELISA signal was found to be 0.224.
Take B5: the ELISA signal was determined as 0.303.
On the same count and under the same terms, to B6 belongs 0.245.
For the molecule B7, the ELISA signal was found to be 0.249.

In the next test the target is T2, Recombinant Human DLL4 (delta-like protein 4) (human, UniProt Q9NR61 27-524).
T2 construct: Bought recombinant protein (R&D Systems Cat#1506-D4/CF); also called rHuman DLL4; Delta-like 4
The test is described as follows: ECL (Meso Scale Discovery) binding assay on immobilised recombinant human DLL4; Fab concentration not given.
B8: the “ECL signal” value was 9360.
Still for that read-out and setting: to B9 belongs 17800; to B10, 12200; to B11, 9830.
For B12, the “ECL signal” value came out at 7550.
On the same count and under the same terms, to B13 belongs 9550; to B14, 9620.
The same measure, in the same setting: to B15 belongs 10600.

The next test deals with T1, Recombinant Human DLL4 (delta-like …). The test is described as follows: ELISA on coated DLL4, Fab at 12.5 nM (2-fold serial dilution).
As to B1, the ELISA signal was found to be 0.184.
Still for that read-out and setting: to B2 belongs 0.233; to B3, 0.215; to B4, 0.223.
The same measure, in the same setting: to B5 belongs 0.309; to B6, 0.244.
Still for that read-out and setting: to B7 belongs 0.23.

For another test the target is unchanged. The test is described as follows: ELISA on coated DLL4, Fab at 50 nM (2-fold serial dilution).
B1: the ELISA signal is 0.211.
On the same count and under the same terms, to B2 belongs 0.245.
As to B3, the ELISA signal was determined as 0.194.
Regarding B4, the ELISA signal was found to be 0.23.
Take B5: the ELISA signal is 0.456.
With B6, the ELISA signal was determined as 0.232.
On the same count and under the same terms, to B7 belongs 0.209.

The next test shares this target. In words: ELISA on coated DLL4, Fab at 3.125 nM (2-fold serial dilution).
As to B1, the ELISA signal was 0.18.
The same measure, in the same setting: to B2 belongs 0.257.
On the same count and under the same terms, to B3 belongs 0.216; to B4, 0.252; to B5, 0.246.
In the case of B6, the ELISA signal is 0.251.
On the same count and under the same terms, to B7 belongs 0.244.

For a further test, the target named is T3, rHuman ErbB2/Fc Chimera, CF (R&D Systems Cat#1129-ER) (human, UniProt P04626 23-652).
T3 construct: Bought recombinant protein; also called human epidermal growth factor 2 receptor; Fc part of the bought chimera not given
In words: ECL multispot (MSD) binding assay, antigens spotted on plate, 20 nM Fab.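 Note: fab incubated 1 h at 20 °C on antigen-spotted wells, bound Fab detected by TAG-labelled antibody, ratio of 4 or more over blank counted as a hit.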
As for B16, the “ECL multispot signal (ratio to blank; column not labelled)” value came to 11.4.
Still for that read-out and setting: to B17 belongs 16.5; to B18, 0.8.

A further test has as its target T4, Recombinant Human DLL4 (R&D Systems Cat#1506-D4/CF) (human, UniProt Q9NR61 27-524).
T4 construct: Bought recombinant protein; also called delta-like protein 4; rHuman DLL4
The description is as above.
For the molecule B16, the “ECL multispot signal (ratio to blank; column not labelled)” value came out at 2.
With B18, the “ECL multispot signal (ratio to blank; column not labelled)” value was 1.8.

Another test deals with T5, rHuman CD44/Fc Chimera, CF (R&D Systems Cat#3660-CD) (human, UniProt P16070 21-220).
T5 construct: Bought recombinant protein; Fc part of the bought chimera not given
The description is as above.
For B16, the “ECL multispot signal (ratio to blank; column not labelled)” value came to 1.7.
For the molecule B18, the “ECL multispot signal (ratio to blank; column not labelled)” value turned out to be 1.6.

The next test has as its target T6, rHuman Erythropoietin R/Fc Chimera, CF (R&D Systems Cat#963-ER) (human, UniProt P19235 25-250).
T6 construct: Bought recombinant protein; also called EPO R; Epo R; Fc part of the bought chimera not given
T6 sequence (looked up): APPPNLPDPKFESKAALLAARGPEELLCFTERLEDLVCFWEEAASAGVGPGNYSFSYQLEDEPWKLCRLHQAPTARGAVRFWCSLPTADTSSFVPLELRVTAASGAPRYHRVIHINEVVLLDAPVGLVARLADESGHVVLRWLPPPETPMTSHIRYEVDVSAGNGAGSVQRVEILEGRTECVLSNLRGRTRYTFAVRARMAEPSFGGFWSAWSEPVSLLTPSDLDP
The test is described as above.
For the molecule B16, the “ECL multispot signal (ratio to blank; column not labelled)” value was found to be 73.7.
Still for that read-out and setting: to B17 belongs 117.

The next test deals with T7, rHuman EGF R/Fc Chimera, CF (R&D Systems Cat#344-ER) (human, UniProt P00533 25-645).
T7 construct: Bought recombinant protein; also called epidermal growth factor receptor; Fc part of the bought chimera not given
The test is described as above.
Turning to B16, the “ECL multispot signal (ratio to blank; column not labelled)” value was 8.6.
Still for that read-out and setting: to B17 belongs 7.6.
For the molecule B18, the “ECL multispot signal (ratio to blank; column not labelled)” value is 1.8.

In the next test the target is T8, rHuman IGF-1 sR, (IGF-1 sR), CF (R&D Systems Cat#391-GR) (human, UniProt P08069 31-932).
T8 construct: Bought recombinant soluble receptor; The column head prints only 'IGF-1'; also called insulin-like growth factor-1 soluble receptor
The description is as above.
Consider B16, for which the “ECL multispot signal (ratio to blank; column not labelled)” value was found to be 1.4.
As to B18, the “ECL multispot signal (ratio to blank; column not labelled)” value worked out at 1.8.

The target in the next test is T9, rHuman P-Cadherin/Fc Chimera, CF (R&D Systems Cat#861-PC) (human, UniProt P22223 108-654).
T9 construct: Bought recombinant protein; Fc part of the bought chimera not given
Described as above.
B16: the “ECL multispot signal (ratio to blank; column not labelled)” value was determined as 39.
In the case of B17, the “ECL multispot signal (ratio to blank; column not labelled)” value was 38.8.
Still for that read-out and setting: to B18 belongs 1.
